Source: PMC11955279, “The Molecular Mechanism of Interaction Between [sequence]3 and APETALA1 in Arabidopsis thaliana” (Plant Direct, 2025)

Biological target: the molecule itself
Assay: native gel or EMSA; chemiluminescent EMSA; purified protein bound to the biotin-labelled AP1 probe (single CArG cassette) at room temperature; dimer band on the DNA probe

B1: AtSEP3, wild type, recombinant GST-tagged protein (natural protein, Arabidopsis thaliana, UniProt O22456 2-251, looked up)
chain: GRGRVELKRIENKINRQVTFAKRRNGLLKKAYELSVLCDAEVALIIFSNRGKLYEFCSSSSMLRTLERYQKCNYGAPEPNVPSREALAVELSSQQEYLKLKERYDALQRTQRNLLGEDLGPLSTKELESLERQLDSSLKQIRALRTQFMLDQLNDLQSKERMLTETNKTLRLRLADGYQMPLQLNPNQEEVDHYGRHHHQQQQHSQAFFQPLECEPILQIGYQGQQDGMGAGPSVNNYMLGWLPYDTNSI
notes: also called wild-type SEP3 protein; source: E. coli BL-21 (DE3), pGEX-4T-3, purified (GST-tagged protein purification kit)
  binding result: binds
